# According to article PMC8244865, “Recruitment of phospholipase Cγ1 to the non-structural membrane protein pK15 of Kaposi Sarcoma-associated herpesvirus promotes its Src-dependent phosphorylation” (PLoS Pathogens, 2021):
# B1: pK15 CT^WT: pK15 cytoplasmic tail fused to GST at its N-terminal end, phosphorylated in vitro by Src (protein)
# chain: SQLLNEVELQEVNRDPPNVFGYASILVSGAEESREPSPQPDQSGMSILRVDGGSAFRIDTAQAATQPTDDLYEEVLFPRN
# modifications: tyrosine-phosphorylated in vitro by Src; sites not stated for this construct; left off: GST, N-terminal, kept
# Key:
# [1] = test system: PLCγ1 tSH2 domain (Src-mediated phosphorylation, Y^783); assay: in vitro Src kinase assay, 35mer-enhanced PLCγ1 tSH2 phosphorylation; format: biochemical; settings: 1.25–5.0 μM 12mer, 2.5 μM 35mer, 0.085 μM Src, 45 min, 37°C; pY783 Western blot
# Experimental: Fig 7 The pK15 CT domain enhances Src-mediated phosphorylation of the PLCγ1 tSH2 domain. (A) The purified PLCγ1 tSH2 domain (0.6 μM) was incubated with limiting amounts (0.085 μM) of recombinant purified Src kinase expressed in insect cells in the presence of increasing concentrations (1.25–5 μM) of phosphorylated peptides representing the last 12 (pK15 12mer) or 35 (pK15 35mer) amino acids of the pK15 cytoplasmic domain for 1 hour at 37°C. The reaction was stopped using SDS sample buffer and analysed by SDS-PAGE and Western blot using an antibody to the PLCγ1 pY^783 residue (top panel) or to the His tag on the recombinant tSH2 domain (bottom panel). […]
# To test the impact of a pK15 CT fragment (pK15 CT^N2) or phosphorylated pK15 peptides representing the last 12 (DDLp[…]) or 35 ([…]pYEEVLFRN) amino acids of pK15 CT on the Src-mediated phosphorylation of the PLCγ1 tSH2 domain, GST-pK15CT^N2 was first phosphorylated with Src in vitro as described in the preceding paragraph. […] The reaction mix was then analysed by Western blot using an antibody to the phosphorylated Y^783 in the linker region of the PLCγ1 tSH2 domain and an antibody to the 5x His tag. […] Following a 45 min incubation at 37°C, the reaction mixture was analysed by Western blot as above.
# [2] = test system: PLCγ1 nSH2 domain; assay: AlphaLISA, isolated PLCγ1 nSH2; format: binding; settings: phosphorylated; 300 nM each protein; domain tested individually
# Experimental: (§1) Fig 4 The PLCγ1 cSH2 domain is required for the binding of PLCγ1 to phosphorylated pK15 in vitro and may serve as a dominant-negative inhibitor. GST-fused pK15 cytoplasmic tail WT (A), or its truncated mutant N2 [51] (B), were phosphorylated in vitro by 2xStrep-Src and an AlphaLISA was performed with the indicated His-tagged fragments of PLCγ1. Mean and standard deviation from at least two independent experiments with two technical replicates each are depicted. GST fusion proteins of the N1 (C) or N2 (D) truncation mutants of the pK15 cytoplasmic tail were phosphorylated in vitro by 2xStrep-Src and their interaction with recombinant purified PLCγ1 tSH2 (tandem SH2) or SA (γ-specific array) domains was measured by AlphaLISA in the presence of increasing concentrations (300 nM, 600 nM, 900 nM, 1200 nM) of the purified PLCγ1 cSH2. […] After 48h lysates were collected and analysed by Western blot using an antibody to PLCγ1 pY^783 to assess the level of PLCγ1 phosphorylation. (F) The intensities of the pPLCγ1 bands shown in panel E were quantified by densitometry, normalized to the values obtained with the empty vector (EV) in the presence of pK15, and plotted as relative values. […]
# (§2) His-tagged PLCγ1 (SA, tSH2 or the isolated SH2 domains) was incubated at room temperature with GST-tagged K15P or its mutants for 1 hour. […] Emission at 615 nm was detected on BioTek Synergy 2 plate reader.
# [3] = test system: PLCγ1 cSH2 R^694L; assay: AlphaLISA, isolated PLCγ1 cSH2 R694L; format: binding; settings: phosphorylated; 300 nM each protein
# Experimental: as §1, §2
# [4] = test system: PLCγ1 SA and PLCγ1 tSH2, cSH2 R^694L mutant; assay: AlphaLISA, SA and tSH2 R694L mutant; format: binding; settings: phosphorylated; 300 nM each protein
# Experimental: as §1, §2
# [5] = test system: PLCγ1 SA and PLCγ1 tSH2, nSH2 R^586L mutant; assay: AlphaLISA, SA and tSH2 R586L mutant; format: binding; settings: phosphorylated; 300 nM each protein; versus wt PLCγ1 SA and tSH2
# Experimental: as §1, §2
Molecule,inhibition of 35mer-induced tSH2 phosphorylation [1],interaction (AlphaLISA) [2],interaction (AlphaLISA) [3],interaction (AlphaLISA) [4],interaction (AlphaLISA) [5]
"DDLpYEEVLFPRN [pK15 12mer, phosphorylated peptide representing the last 12 amino acids of pK15 CT (DDLp…)]",could inhibit the increased PLCγ1 tSH2 phosphorylation induced by the 35mer peptide,–,–,–,–
B1,–,not the nSH2 domain,abolished,markedly reduced binding,to a similar extent as wt PLCγ1 SA and PLCγ1 tSH2
